According to patent US5858973:

Target: IDX-1 (IDX-1/pBJ5 expressed in NIH-3T3) (Rattus norvegicus) (UniProt P52947)
Test: cell_activity

Chain of IDX-1 (IDX-1/pBJ5 expressed in NIH-3T3) (Rattus norvegicus) (P52947 other isoform, or with tags, fused parts or gaps): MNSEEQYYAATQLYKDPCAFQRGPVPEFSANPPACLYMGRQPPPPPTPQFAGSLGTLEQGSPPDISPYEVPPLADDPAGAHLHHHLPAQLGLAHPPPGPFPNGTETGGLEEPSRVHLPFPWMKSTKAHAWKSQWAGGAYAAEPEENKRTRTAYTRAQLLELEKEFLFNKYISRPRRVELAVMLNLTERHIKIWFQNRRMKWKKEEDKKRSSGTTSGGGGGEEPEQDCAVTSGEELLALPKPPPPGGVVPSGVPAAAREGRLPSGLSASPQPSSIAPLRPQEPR

Row | Substance | activity (parent TKCAT not activated) [fold] | activity (CAT reporter in NIH-3T3) [fold]
1 | SMS(-900/-250)TKCAT | 4 | 
2 | SMS900(delta-250/-120)CAT promoter |  | 5
3 | SMS900CAT promoter (-900 to +54) |  | 4
